Among the data in article PMC4038590 (PLoS ONE, 2014) are Kd, Ka and dH values, retold here.

T1: human Med25 ACtivator Interaction Domain (hMed25-ACID), 6 x his-tagged human Med25_(394-543) (human, UniProt Q71SY5 394-543)
T1 construct: source: 15N-labelled in M9 medium for NMR
T1 sequence (looked up): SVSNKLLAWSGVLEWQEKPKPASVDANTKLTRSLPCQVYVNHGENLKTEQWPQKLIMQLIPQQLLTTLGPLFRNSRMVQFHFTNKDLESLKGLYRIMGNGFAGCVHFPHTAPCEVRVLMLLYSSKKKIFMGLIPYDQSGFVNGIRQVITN

B1: GST-VP16-TAD (Herpes simplex virus VP16 transcription activation domain, both subdomains, residues 427-485) (domain or fragment)
chain: DGEDVAMAHADALDDFDLDMLGDGDSPGPGFTPHDSAPYGALDMADFEFEQMFTDALGI
notes: source: E. coli BL21 pLysS, purified (glutathione-sepharose 4B)
B2: Arabidopsis thaliana Med25 ACtivator Interaction Domain (aMed25-ACID), Med25_(551-680) (domain or fragment, UniProt Q7XYY2 551-680, looked up)
chain: TSQSKYVKVWEGNLSGQRQGQPVLITRLEGYRSASASDSLAANWPPTMQIVRLISQDHMNNKQYVGKADFLVFRAMSQHGFLGQLQDKKLCAVIQLPSQTLLLSVSDKACRLIGMLFPGDMVVFKPQIPN
notes: source: 15N-labelled in M9 medium for NMR
B3: GST-VP16-TADn (Herpes simplex virus VP16 N-terminal transcription activation subdomain, residues 412-452) (domain or fragment)
chain: TAPPTDVSLGDELHLDGEDVAMAHADALDDFDLDMLGDGDS
notes: as for B1
B4: 6 x his-tagged Dreb2a_(168-335) (Dehydration responsive element binding protein 2A, Med25-binding domain 168-253 and activation domain 254-335) (domain or fragment, Arabidopsis thaliana, UniProt O82132 168-335, looked up)
chain: DCESKPFSGGVEPMYCLENGAEEMKRGVKADKHWLSEFEHNYWSDILKEKEKQKEQGIVETCQQQQQDSLSVADYGWPNDVDQSHLDSSDMFDVDELLRDLNGDDVFAGLNQDRYPGNSVANGSYRPESQQSGFDPLQSLNYGIPPFQLEGKDGNGFFDDLSYLDLEN

Conditions in all cases: both partners purified
Assay [1] deals with B2. Put plainly: SPR.
The target in assay [2] is T1, human Med25 ACtivator Interaction …. Description: SPR. In general terms: In SPR one partner is held on a chip, and binding of the other changes the refractive index at the surface.
Assay [3] deals with B4. Description: ITC. (Isothermal titration calorimetry measures the heat released or taken up as one component is titrated into another.)
The target in assay [4] is B2. Description: ITC.

As a reminder, the Kd is the concentration at which binding is half-saturated. Read a high Kd as lower affinity.

Turning to B1, the Kd in assay [1] is 1.8 µM; in assay [2] it was 2.8 µM.
For B2, in assay [3], the Ka was 328000 M⁻¹ and the dissociation constant Kd is 3 µM.
With B3, the Kd in assay [1] came to 2.4 µM; in assay [2], 5.4 µM.
B4 came in with a dH in assay [4] of -21.9 kcal/mol.
